The results in this text go back to patent US20200147178A1 (SYNERKINE PHARMA B V, published 2020).

The series concerns the molecule itself. Kind of series: HP-SEC, self-association. Here is the method:
To determine the molecular weight of the IL4-IL10 fusion protein, a High Performance Size Exclusion Chromatography (HP-SEC) assay was performed. The gel filtration (BioSuite 125 4 μm UHR SEC Column; Waters; Cat #186002161) was performed on a High-Performance Liquid Chromatography System (Shimadzu) with 50 mM phosphate buffer containing 0.5 M NaCl as mobile phase. The column was calibrated prior to the run using a protein mix of thyroglobulin, bovine serum albumen, carbonic anhydrase, myoglobulin, and ribonuclease. The IL4-IL10 fusion protein purified by cation exchange was obtained by pooling and concentrating the chromatography fractions with the highest IL4-IL10 fusion protein content (2 ml of pooled fractions was concentrated to 100 μl, containing 2 μg of IL4-IL10 fusion protein). Fifty μl of 20 μg/ml of pooled IL4-IL10 fusion protein was injected and ran trough the column at a flow rate of 0.35 ml/min and under a pressure of 35 bar. Fractions of 175 μl were collected and the IL4 and IL10 content was measured in the above described IL4 and IL10 ELISA (1/500 dilution). Similar runs with recombinant human IL4 (Sigma, Cat #14269) and recombinant human IL10 (Sigma, Cat #19276) were performed to compare the molecular size of the IL4-IL10 fusion protein with that of the wild-type cytokines.
A general note: Size exclusion chromatography separates by hydrodynamic size, large species first.

B1: IL4-IL10 fusion protein (other)
chain: HKCDITLQEIIKTLNSLTEQKTLCTELTVTDIFAASKNTTEKETFCRAATVLRQFYSHHEKDTRCLGATAQQFHRHKQLIRFLKRLDRNLWGLAGLNSCPVKEANQSTLENFLERLKTIMREKYSKCSSGSGGGGSGTSPGQGTQSENSCTHFPGNLPNMLRDLRDAFSRVKTFFQMKDQLDNLLLKESLLEDFKGYLGCQALSEMIQFYLEEVMPQAENQDPDIKAHVNSLGENLKTLRLRLRRCHRFLPCENKSKAVEQVKNAFNKLQEKGIYKAMSEFDIFINYIEAYMTMKIRN
modifications: glycosylated (two glycoforms on the blot, one band after PNGaseF); made with co-transfected sialyltransferase to cap the glycans with sialic acid; sites not stated
notes: On the Western blot it was reduced and denatured; also called IL4-10 fusion protein; IL4-IL10 protein
In the case of B1, the binding result is given as “binds”.

B2: recombinant human IL10 (Sigma, Cat #19276) (ligand, UniProt P22301 19-178, looked up)
chain: SPGQGTQSENSCTHFPGNLPNMLRDLRDAFSRVKTFFQMKDQLDNLLLKESLLEDFKGYLGCQALSEMIQFYLEEVMPQAENQDPDIKAHVNSLGENLKTLRLRLRRCHRFLPCENKSKAVEQVKNAFNKLQEKGIYKAMSEFDIFINYIEAYMTMKIRN
notes: also called recombinant IL10; wild-type IL10
Consider B2, for which the binding result is on record as “binds”.
